Assays:
[1] = target: T1, canine relaxin (mature relaxin in pregnant dog serum) (dog, UniProt Q9TRM8 154-177; Q9TRM8 26-60); experiment: hybridoma screen for activity against relaxin-positive pregnant dog serum
T1 construct: mature; Endogenous relaxin in serum, plasma or whole blood of pregnant dogs; also called dog relaxin
Protocol: Monoclonal IgG antibodies were prepared by immunizing mice with preprorelaxin (Bioraytec Ltd., Zhuhai, China) using standard laboratory methods known in the art. Anti-preprorelaxin antibody expressing hybridomas were derived by fusing myeloma cells with splenocytes from the immunized mice. The antibodies produced by hybridoma clonal cell lines were initially screened for activity against relaxin-positive pregnant dog serum. Relaxin positivity of the serum was confirmed using the FASTest RELAXIN in vitro test (Diagnostik Megacor, Hörbranz, Austria). The serum contains mature relaxin as preprorelaxin is not present in serum, and so the selected antibodies are reactive against relaxin and not only preprorelaxin.

[2] = target: T1, canine relaxin (mature relaxin in …); experiment: hybridoma screen against relaxin-positive dog serum

T1 sequence (Q9TRM8 154-177 limits assumed, chain 1 of 2): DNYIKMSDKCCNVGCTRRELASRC
T1 sequence (Q9TRM8 26-60 limits assumed, chain 2 of 2): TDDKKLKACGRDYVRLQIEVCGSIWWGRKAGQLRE

B1: monoclonal antibody 2H7 (antibody, V domains shown)
VH: DVQLQESGPDLVKPSQSLSLTCTVTGYSITSGYSWHWIRQFPGNKLEWMGYIHYSGRTNYNPSLKSRISITRDTSKNQFFLQLNSVTTEDTATYYCARSMDYWGQGTSVSVSS
VL: DIKMTQSPSSMYASLGERVTITCKASQDIKTYLNWYQQKPWKSPKTLIYYATSLADGVPSRFSGSGSGQDFSLTISSLESDDTATYFCLQHGESPPTFGGGTKLEIK
notes: Mouse monoclonal IgG from hybridoma; Mostly used as capture antibody on the test line; gold-labelled as detection antibody in the pair 2F10-2H7; also called capture antibody; hybridoma CCTCC C2021209
binding result [1]: binds

B2: monoclonal antibody 9B8 (antibody, V domains shown)
VH: EVKLEESGGGLVQPGGSMKLSCAASGFTFSDAWMDWVRRSPEKGLEWIAEIRSKAKNHITYYAESVKGRFTISRDDSKSSVYLQMNSLRTEDSGIYYCTGGFAYWGQGTLVTVSA
VL: DAVMTQNPLSLPVSLGDQASISCRSSQSLEKSNGNTYLNWYLQKPGQSPQLLIYRVSNRFSGVPDRISGGGSGTDFTLKISRVEAEDLGVYFCVQVSHVPFTFGSGTKLEIK
notes: also called second detection antibody; hybridoma CCTCC C2021211
binding result [2]: binds

B3: monoclonal antibody 2A4 (antibody, V domains shown)
VH: AVNLEESGGGLVLPGGSMKLSCTASGFTFSDAWMDWVRRSPEKGLEWLAEIRDETNNHITYYAESVKVRFIISRDDSKSSVYLQMNNLRPEDTGIYYCAAGFAYWGQGTLVTVSA
VL: DAVMTQTPLSLSVSLGDQASISCRSSQSLEKSNGKTYLNWYLQKPGQSPQLLIYRVSNRFSGVLDRFSGSGSGTDFTLKISRVEAEDLGLYFCLQVSHVPFTFGSGTKLEIK
notes: also called first detection antibody; hybridoma CCTCC C2021210
binding result [2]: binds
